Measurements as given in patent US20220291215A1.
Like-named read-outs stand apart in the source and are kept apart here.

Tests used:
[1] = target: Transduced TCR: None
[2] = target: DR1-restricted TCR HA1.7
[3] = target: memory CD4+ T cells from DR1+ donors, unstimulated (a small subset; their TCRs)
[4] = target: memory CD4+ T cells from DR1+ donors, unstimulated (a small subset; their TCRs); remark: listed apart in the source
[5] = target: memory CD4+ T cells from DR1+ donors, unstimulated (a small subset; their TCRs); remark: listed apart in the source
[6] = target: memory CD4+ T cells from DR1+ donors, unstimulated (a small subset; their TCRs); remark: listed apart in the source
[7] = target: Transduced TCR: None; remark: listed apart in the source
[8] = target: DR1-restricted TCR HA1.7; remark: listed apart in the source
[9] = target: DR1-restricted TCR HA1.7; remark: listed apart in the source
[10] = target: DR1-restricted TCR HA1.7; test: flow cytometry, TCR-transduced primary T cells
[11] = target: Transduced TCR: None; remark: listed apart in the source
[12] = target: DR1-restricted TCR HA1.7; remark: listed apart in the source
[13] = target: memory CD4+ T cells from DR1+ donors, unstimulated (a small subset; their TCRs); remark: listed apart in the source
[14] = target: memory CD4+ T cells from DR1+ donors, unstimulated (a small subset; their TCRs); remark: listed apart in the source
[15] = target: memory CD4+ T cells from DR1+ donors, unstimulated (a small subset; their TCRs); remark: listed apart in the source
[16] = target: memory CD4+ T cells from DR1+ donors, unstimulated (a small subset; their TCRs); remark: listed apart in the source
[17] = target: memory CD4+ T cells from DR1+ donors, unstimulated (a small subset; their TCRs); remark: listed apart in the source
[18] = target: Transduced TCR: None; remark: listed apart in the source

DR1^L114W/V143M dimer loaded with Flu-HA306-318 (peptide-MHC)
percent multimer-positive CD4+ cells (number at the gate) [1]: 0%
percent multimer-positive CD4+ cells (number at the gate) [2]: 1.5%

DR1^L114W/V143M+2reps dimer loaded with Flu-HA117-136 (peptide-MHC)
events in the dimer+ CD4+ gate [3]: 10 evts
events in the dimer+ CD4+ gate [4]: 74 evts

DR1^L114W/V143M+2reps dimer loaded with Flu-HA306-318 (peptide-MHC)
events in the dimer+ CD4+ gate [5]: 18 evts
events in the dimer+ CD4+ gate [6]: 53 evts
percent multimer-positive CD4+ cells (number at the gate) [7]: 0%
percent multimer-positive CD4+ cells (number at the gate) [8]: 48.9%
percent multimer-positive CD4+ cells (number at the gate) [9]: 53%
% dimer+ CD4+ cells [10]: 9.1%

DR1^L114W/V143M+6reps dimer loaded with Flu-HA306-318 (peptide-MHC)
percent multimer-positive CD4+ cells (number at the gate) [11]: 0.1%
percent multimer-positive CD4+ cells (number at the gate) [12]: 48.2%

Flu-HA5-24, DR1^L114W/V143M+2reps dimer (PE) (peptide-MHC)
events in the dimer+ CD4+ gate [13]: 1 evts
events in the dimer+ CD4+ gate [14]: 2 evts

Flu-HA232-251, DR1^L114W/V143M+2reps dimer (PE) (peptide-MHC)
events in the dimer+ CD4+ gate [15]: 0 evts

Flu-HA268-287, DR1^L114W/V143M+2reps dimer (PE) (peptide-MHC)
events in the dimer+ CD4+ gate [16]: 0 evts
events in the dimer+ CD4+ gate [17]: 2 evts

wild-type DR1 dimer loaded with Flu-HA306-318 (from UniProt P01911 30-227) (peptide-MHC)
percent multimer-positive CD4+ cells (number at the gate) [18]: 0.1%
